The values that follow come from patent US20220144957A1 (IMMUNECENT BIOTECHNOLOGY, published 2022).

Experiment [1] deals with T1, human IFNAR1, full length (IFNAR1-aa1-557) (human, UniProt P17181 28-557).
T1 sequence (looked up): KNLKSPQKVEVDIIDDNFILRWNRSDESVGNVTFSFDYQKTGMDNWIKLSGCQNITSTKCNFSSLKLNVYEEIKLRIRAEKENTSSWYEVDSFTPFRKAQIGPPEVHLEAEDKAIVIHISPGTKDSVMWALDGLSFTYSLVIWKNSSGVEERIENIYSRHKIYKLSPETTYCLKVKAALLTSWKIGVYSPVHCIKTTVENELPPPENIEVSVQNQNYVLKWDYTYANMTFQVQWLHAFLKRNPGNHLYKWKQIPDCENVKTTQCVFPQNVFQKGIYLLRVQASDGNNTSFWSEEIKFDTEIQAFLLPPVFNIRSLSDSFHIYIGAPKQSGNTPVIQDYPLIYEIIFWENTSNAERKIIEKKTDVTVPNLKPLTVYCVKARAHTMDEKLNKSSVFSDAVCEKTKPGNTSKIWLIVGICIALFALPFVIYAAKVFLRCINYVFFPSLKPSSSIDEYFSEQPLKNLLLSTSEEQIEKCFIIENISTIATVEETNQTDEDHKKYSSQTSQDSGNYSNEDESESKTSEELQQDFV
The experiment is described as follows: cell-based or functional assay.

For experiment [2], the target named is T2, human/mouse chimeric IFNAR1 variant IFNAR1-m149-214 (human, with residues 149-214 replaced …, UniProt P17181 28-557).
T2 construct: expressed on 293T cells
T2 chain: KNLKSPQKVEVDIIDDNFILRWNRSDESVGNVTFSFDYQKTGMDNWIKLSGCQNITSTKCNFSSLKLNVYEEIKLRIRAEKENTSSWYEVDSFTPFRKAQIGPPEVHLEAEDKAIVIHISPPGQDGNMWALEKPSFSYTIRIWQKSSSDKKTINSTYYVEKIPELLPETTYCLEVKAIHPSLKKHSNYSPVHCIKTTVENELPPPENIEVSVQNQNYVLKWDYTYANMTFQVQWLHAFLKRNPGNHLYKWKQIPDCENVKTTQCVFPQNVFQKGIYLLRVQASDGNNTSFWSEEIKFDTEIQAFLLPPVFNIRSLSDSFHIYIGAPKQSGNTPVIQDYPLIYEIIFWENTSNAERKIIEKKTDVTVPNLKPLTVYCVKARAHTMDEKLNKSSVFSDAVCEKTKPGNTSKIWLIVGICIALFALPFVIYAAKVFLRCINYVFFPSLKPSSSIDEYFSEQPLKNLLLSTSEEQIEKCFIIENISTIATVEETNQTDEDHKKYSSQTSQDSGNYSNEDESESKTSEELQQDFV
Put plainly: flow cytometry, 293T cells overexpressing IFNAR1-m149-214, MFI.
Procedure: (§1) After the incubation, the cells were centrifuged and re-suspended with 200 μL of FACS buffer, before next centrifugation and re-suspension.
(§2) PE-labeled goat anti-mouse IgG antibody (Biolegend) diluted in FACS buffer at 1:400 was added to each well. The cells were re-suspended and incubated at 4° C. for 30 min in the dark. After the incubation, the plate was centrifuged, the supernatant was discarded, and the cells were washed once as described above and re-suspended by adding 200 μL FACS buffer. Finally, the re-suspended cells were analyzed using a flow cytometer Guava (Millipore) for cellular GFP and PE signals.

For experiment [3], the target named is T2, human/mouse chimeric IFNAR1 variant …. The experiment is described as above.
Procedure: as §1, §2

Where two headings read alike, the source gives them in different places.

B1: anti-human IFNAR1 monoclonal antibody 7G4 (antibody, V domains shown)
VH: QVQLQQPGAELVKPGAPVKLSCKASGYTFTSYWMNWVRQRPGRGLEWIGKIDPSDSETHFNQKFRDKATLTVDKSSTTAYIQLSSLTSEDSAVYYCARGGRISFDYDAALDYWGQGTSVTVSS
VL: DILMTQSSSSFSVSLGDRVTITCKSSEVIYNRLAWFQQKPGNAPRLLISGATTLESGFPSRFSGSGSGKDYTLSITSLQIEDVSTYYCQQYWNKPFTFGSGTKLEVK
notes: Mouse monoclonal antibody from hybridoma CGMCC No. 16286
Consider B1, for which the “fold decrease in percentage of GFP positive reporter cells with serum from SLE patients” value in experiment [1] was approximately 3 fold. In addition, the binding result in experiment [2] is “binds”.

B2: anti-human IFNAR1 monoclonal antibody 10C5 (antibody, V domains shown)
VH: QVQLQQPGTELVKPGSPVKLSCKASGYTFTSFWLNWVQQRPGRGLEWIGKIDPSDSEIRYNQKFKDKATLTVDKSSNTAYIQLSSLTSEDSAVYYCARGGGIYYDYDGAMDYWGQGTSVTVSS
VL: DIQMTQSSSSFSVSLGDRLTITCKASEVIYNRLAWFQQKPGNAPRLLISGATSLETGVPSRFSGSGSRKDYTLSISSLQTEDVATYYCQQYWSSPFTFGSGTKLEIK
notes: Mouse monoclonal antibody from hybridoma CGMCC No. 16287
Take B2: the “fold decrease in percentage of GFP positive reporter cells with serum from SLE patients” value in experiment [1] is approximately 3 fold. Besides, the binding result in experiment [3] is reported as “binds”.
